Measured values published in US20170081419A1 (AbbVie / Abbott, published 2017).

Experiments:
marmoset CD46 homolog = target: T1, marmoset CD46 homolog (marmoset (Callithrix jacchus), UniProt Q8HYX8 33-285, limits assumed); experiment: ForteBIO, concentration series of recombinant monomeric CD46 homolog
T1 sequence (looked up): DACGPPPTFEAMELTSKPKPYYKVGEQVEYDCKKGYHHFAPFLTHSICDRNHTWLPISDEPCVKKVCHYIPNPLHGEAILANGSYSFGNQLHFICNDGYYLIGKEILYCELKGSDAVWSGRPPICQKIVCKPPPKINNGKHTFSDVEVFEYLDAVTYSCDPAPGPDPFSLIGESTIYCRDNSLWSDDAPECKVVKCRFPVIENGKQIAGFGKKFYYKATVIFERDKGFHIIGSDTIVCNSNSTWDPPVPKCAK
Procedure: Finally, cross-reactivity with regard to cynomolgus, marmoset, and squirrel monkey CD46 homologs were evaluated in ForteBIO using a concentration series with recombinantly expressed, monomeric CD46 antigens.

[1] = target: T2, human CD46 (recombinant antigen used in affinity and mapping experiments) (human, UniProt P15529 35-285, limits assumed); experiment: bio-layer interferometry (ForteBIO, superscript F), antigen concentration series
T2 construct: also called CD46 antigen
T2 sequence (looked up): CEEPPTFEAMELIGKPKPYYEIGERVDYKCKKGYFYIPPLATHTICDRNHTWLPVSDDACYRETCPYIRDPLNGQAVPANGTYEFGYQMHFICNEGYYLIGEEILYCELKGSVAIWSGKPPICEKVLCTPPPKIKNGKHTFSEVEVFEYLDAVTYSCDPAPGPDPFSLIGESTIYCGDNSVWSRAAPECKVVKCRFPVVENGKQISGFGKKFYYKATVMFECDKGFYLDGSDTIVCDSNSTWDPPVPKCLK
Procedure: (§1) With regard to the data, affinity was measured in three ways to ensure accuracy. […] Second, the affinities and kinetic constants kₒₙ and koff of the selected modulators were then measured using bio-layer interferometry analysis on a ForteBIO RED (ForteBIO, Inc.) with a standard antigen concentration series. Finally, the affinity of selected modulators was measured by surface plasmon resonance (Biacore System, GE Healthcare). Based on a standard antigen concentration series and using a 1:1 Langmuir binding model, the Kd of the antibody binding to antigen and the kinetic constants kₒₙ and koff were determined.

[2] = target: human CD46 on the cell surface (human), P15529; experiment: cell-based or functional assay
[3] = target: T2, human CD46 (recombinant antigen used in …); experiment: SPR (Biacore), human CD46 antigen series, 1:1 Langmuir model
[4] = target: T2, human CD46 (recombinant antigen used in …); experiment: surface plasmon resonance (Biacore, superscript B), antigen concentration series, 1:1 Langmuir model
Procedure: as §1

B1: N95.1 (antibody, IgG2a, V domains shown)
VH: QVQLQQSGAELARPGASVKLSCKASDYTFTSYGISWVKQRTGQGLEWIGEIFPRSGNTYYNEKFKGKATLTADKSSSTAYMELRSLTSEDSAVYFCARGLGGAMDYWGQGTSVIVSS
VL: DIVMTQAAPSVPVTPGESVSISCRSSKSLLHSNGNTYLYWFLQRPGQSPQLLIYRMSNLASGVPDRFSGSGSGTTFTLRISGVEAEDVGVYYCMQHLEYPCTFGGGTKLEIKR
notes: .1 is the subclone suffix; also called SC1.N95
Q: Does B1 bind (marmoset CD46 homolog)?
A: Result: no binding

Q: And the Kd [1]?
A: Its Kd is 8 nM.

B2: N135.1 (antibody, IgG2b, V domains shown)
VH: DVQLVESGGGLVQPGGSRKLSCAASGFTFSSFGMHWVRQAPEKGLEWVAYISSATSAIYYADTVKGRFTISRDNPTNTLFLQMTSLRSEDTAMYYCARKGNNYFDYWGQGTTLTVSS
VL: QIVLTQSPAIMSASPGEKVTLSCSATSSVTYMHWLQQKPGSSPKPWIYRTSNLASGVPARFRGSGSGTSYSLTISSMEAEDAATYYCQQYHSYPPTFGGGTKLEIKR
notes: .1 is the subclone suffix; also called SC1.N135
Q: Does B2 bind (marmoset CD46 homolog)?
A: Result: no binding

Q: And the Kd [1]?
A: Its Kd is 1 nM.

B3: humanized antibody hSC1.N71 (antibody, human IgG1, V domains shown)
VH: QVQLQESGPGLVKPSETLSLTCTVSGGSVSSYDISWIRQPPGKGLEWIGVIWTDGGTNYNSAFMSRVTISVDTSKNQFSLKLSSVTAADTAVYYCARVYDGYPWFAYWGQGTLVTVSS
VL: DIQMTQSPSSLSASVGDRVTITCRASQGISNYLNWYQQKPGKAPKLLIYYTSSLHSGVPSRFSGSGSGTDFTLTISSLQPEDFATYYCQQYIKLPWTFGGGTKLEIKR
notes: also called humanized SC1.N71; human SC1.N71
Q: Which effective concentrations causing 50% cell death (EC50), HEK-293T cells, streptavidin-saporin [2] does the source give for B3 here?
A: The effective concentrations causing 50% cell death (EC50), HEK-293T cells, streptavidin-saporin was 0.0266 nM.

Q: What about the Kd [3] of the same binder?
A: Its Kd is 0.7 nM.

B4: humanized antibody hSC1.N149 (antibody, human IgG1, V domains shown)
VH: QVQLVQSGAEVKKPGASVKVSCKASGYTFTDYNMDWVRQAPGQGLEWMGDINPNNGDTFYNQKFKGRVTMTTDTSTSTAYMELRSLRSDDTAVYYCARSKYDNYPWFAYWGQGTLVTVSS
VL: DIQMTQSPSSLSASVGDRVTITCRASQDINNYLNWYQQKPGKAPKLLIYYTSSLHSGVPSRFSGSGSGTDFTLTISSLQPEDFATYYCQQYIKLPWTFGGGTKLEIKR
Q: B4 was tested. Which effective concentrations causing 50% cell death (EC50), HEK-293T cells, streptavidin-saporin [2] did it give?
A: Its effective concentrations causing 50% cell death (EC50), HEK-293T cells, streptavidin-saporin is 0.174 nM.

B5: N146.2 (antibody, IgG1, V domains shown)
VH: EVQLVESGGGLVKPGGSLKLSCAASGFTFSSFGMSWVRQTPEKRLEWVAAINSNGGNTYYSDTVKGRFTISRDNAKNTLYLQMSSLRSADTALYYCARVVHFDVWGAGTTVTVSS
VL: AIQMTQTTSSLSASLGDRVTISCSASQDISNYLNWYQQKPDGTVKLLIYYTSSLHSGVPSRFSGSGSGTDYSLTISNVEPEDVATYYCQQYSELPYTFGGGTKLEINR
notes: Kept apart from m10, which is the mouse/human chimeric form of the same clone; also called SC1.N146 (murine hybridoma clone)
Q: Does B5 bind (marmoset CD46 homolog)?
A: Result: no binding

Q: What about the Kd [4] of the same binder?
A: Its Kd is 1.5 nM.

B6: N50.3 (antibody, IgG2b, V domains shown)
VH: EVLLHQSGPELVKPGASVKIPCKASGYTFTDYNMDWVKQSHGKSLEWIGDINPNNGGTFYNQKFKGKATLTVHKSSSTAFMELRSLTSEDTAVYYCTRSKYDNYPWFAYWGQGTLVTVSA
VL: DIQMTQITSSLSASLGDRVTISCSASQGISNYLNWYQQKPDGTVKLLIYYTSSLHSGVPSRFRGSGSGTNYSLTISNLEPEDIATYYCQQYIKLPWTFGGGTKLEIKR
notes: .3 is the subclone suffix; also called SC1.N50
Q: Which Kd [1] does the source give for B6 here?
A: Its Kd is 1 nM.
